We go through two substances from patent US20190248848A1.

The target of test [1] is histone H3 trimethylated at lysine 27 (H3K27me3) in cellular chromatin at the Tk-luciferase reporter of HEK293 Gal4-EED/luc cells. The test can be described thus: cell-based or functional assay.
Test [2] has as its target biotinylated histone H3 peptide trimethylated at lysine 27, H3K27me3 (21-44) (UniProt P68431). The test can be described thus: histone peptide microspot array, 10 and 20 µM spotted H3K27me3.

In test [1], “Pc2TF with the flexible linker (GGGGS)4 (MV10 mammalian expression construct, expressed in HEK293 Gal4-EED/luc cells) (from UniProt Q9HC52 1-62; Q9HC52 1-62) (designed binder)” displayed a luciferase activity, Tk-luciferase reporter, HEK293 Gal4-EED/luc cells, 96 hours dox (fold against PcTF) of 2.

Consider “Pc2TF, bivalent Polycomb-based transcription factor with the flexible linker (GGGGS)4 (pET28 construct; TXTL-expressed or purified from E. coli) (from UniProt Q9HC52 1-62; Q9HC52 1-62) (designed binder)”, for which the fold smaller Kd^app than PcTF in test [2] stood at 2 fold.
